Values of other authors as cited in publication PMC5973875.
Read-outs that look alike come from different tables or passages of the source.

How the values were obtained:
Protein S (Homo sapiens) [1] = biological target: Protein S (Homo sapiens) (UniProt P07225)
Protein S (Homo sapiens) [2] = biological target: Protein S (Homo sapiens) (UniProt P07225); remark: listed apart in the source

Sequence of UniProt P07225 (P07225 42-676): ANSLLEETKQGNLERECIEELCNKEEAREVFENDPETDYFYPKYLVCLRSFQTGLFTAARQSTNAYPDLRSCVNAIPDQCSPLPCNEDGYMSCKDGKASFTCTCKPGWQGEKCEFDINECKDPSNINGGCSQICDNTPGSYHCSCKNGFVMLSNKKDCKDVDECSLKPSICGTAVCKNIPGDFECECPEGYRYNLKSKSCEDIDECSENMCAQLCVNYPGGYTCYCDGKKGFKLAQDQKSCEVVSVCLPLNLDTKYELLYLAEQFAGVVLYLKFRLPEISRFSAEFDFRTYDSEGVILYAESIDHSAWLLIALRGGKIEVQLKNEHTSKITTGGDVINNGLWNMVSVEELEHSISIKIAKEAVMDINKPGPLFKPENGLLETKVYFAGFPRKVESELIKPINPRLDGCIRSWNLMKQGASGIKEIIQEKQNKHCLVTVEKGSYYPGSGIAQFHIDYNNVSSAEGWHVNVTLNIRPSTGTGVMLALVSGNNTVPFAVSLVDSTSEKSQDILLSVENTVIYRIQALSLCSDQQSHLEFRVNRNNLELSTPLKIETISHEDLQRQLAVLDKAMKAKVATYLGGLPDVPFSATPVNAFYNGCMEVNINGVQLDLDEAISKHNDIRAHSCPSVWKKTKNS

C4BP (from UniProt P04003)
Kd (Protein S (Homo sapiens) [1]): 0.1 nM

Factor Va heavy chain (from UniProt P12259)
Kd (Protein S (Homo sapiens) [2]): 33 nM
